From PMC10315065 (Journal of Innate Immunity, 2023) come the findings set out here.

In assay [1] the test system is cell surface GAPDH, THP-1. In kind it is cell-based. The note with it: IFNγ; empty vector vs GAPDH knockdown; n = 3.
The next assay deals with P2X7, THP-1. The class given is cell-based. The settings on record: IFNγ; empty vector vs GAPDH knockdown; n = 3.
The next assay concerns cell surface GAPDH, J774. The class given is cell-based, mouse. The settings on record: IFNγ 100 ng/mL, 24 h; n = 3.
The next assay relates to GAPDH, J774. Description: GAPDH activity in cell lysate. In kind it is cell-based, mouse.

B1: IFNγ: recombinant mouse IFNγ (PeproTech #315-05) (protein, UniProt P01580 23-155, looked up)
Interferon gamma: HGTVIESLESLNNYFNSSGIDVEEKSLFLDIWRNWQKDGDMKILQSQIISFYLRLFEVLKDNQAISNNISVIESHLITTFFSNSKAKKDAFMSIAKFEVNNPQVQRQAFNELIRVVHQLLPESSLRKRKRSRC
As to B1, the “GAPDH recruitment on the cell surface, WT and GAPDH K/D” value in assay [1] is “enhanced GAPDH recruitment on the cell surface of WT cells but failed to do so in GAPDH K/D cells”. Moreover, in the assay on P2X7, THP-1, the “surface P2X7 expression” value is “surface expression of P2X7 continued to be elevated irrespective of GAPDH K/D”. Further, the “increase in cell surface GAPDH localization” value in the assay on cell surface GAPDH, J774 is around 50%. In the assay on GAPDH, J774 (IFNγ 100 ng/mL, 24 h), the GAPDH activity result is recorded as “enhanced GAPDH activity”. For the same molecule, the “total cellular GAPDH” value in the assay on GAPDH, J774 (IFNγ treatment, Fig. 1i) is listed as “significant increase in total cellular GAPDH”.
